# Data reported in the RNAGym collection of RNA variant scans (doi:10.7554/elife.80360).
# B1: Hammerhead Ribozyme (parent)
# chain: ACCGGAUGUGCUUUCCGGUCUGAUGAGUCCGUGAGGACGAAACAG
# Variants of: B1
# Assay: self-cleavage, relative activity (ratio to wild type); higher = more cleavage; co-transcriptional
row,Variant,self-cleavage
1,A23C G45C,0.376
2,C3U A37U,0.794
3,C11G C38G,0.692
4,C11U G25A,0.39
5,G5C G25C,0.397
6,G5C G25U,0.307
7,C15U A44G,1.21
8,U24G U28C,0.971
9,C3U A34U,0.947
10,U7C C43A,0.309
11,U12C U13A,1.36
12,U21G A42U,0.36
13,G8A G17A,0.539
14,A6U A40G,0.317
15,G5A G17A,0.397
16,U21G G22A,0.324
17,U13G G35C,0.819
18,U13G G35A,0.916
19,G31U U32C,0.69
20,G36A C38U,0.531
21,A34C A40G,0.334
22,U14A G27U,0.405
23,G18C G45C,0.383
24,C3A G39C,0.282

row,Variant,self-cleavage
1,U12A C38U,0.87
2,G17C G22A,0.274
3,A34G G35U,0.847
4,C2A C29G,0.378
5,C3A A41G,0.262
6,C16U A23U,0.358
7,C15G C30A,0.653
8,G18U A41U,0.385
9,G10A U24A,1.12
10,C11A G33C,1.27
11,G33A C38U,0.995
12,G33C A37G,0.619
13,G25A G33U,0.45
14,A23U U24C,0.45
15,U14C G27A,0.602
16,U24G G27U,0.438
17,G27A A34C,0.431
18,A37U G45A,0.468
19,U24C A26C,0.609
20,A1C U21G,0.337
21,C29U C38A,0.485
22,G27U A42U,0.315
23,G8U C20G,0.392
24,U7A U32G,1.07

row,Variant,self-cleavage
1,G8A U13G,1.24
2,C20A U24A,0.764
3,U21C G45C,0.416
4,G18U G33U,0.705
5,A37G C43A,0.332
6,A26U A40G,0.344
7,U24G G31C,1.19
8,A1C G4C,0.472
9,G4C G36C,0.247
10,G31A A41C,0.407
11,A34C C38G,0.436
12,C30A G31C,0.872
13,C11G U32A,1.1
14,G4U G35U,0.388
15,U13C A34C,1.02
16,G22U A23C,0.284
17,A6C A23C,0.333
18,U19A,0.391
19,G33C A44C,0.533
20,U9C G18C,0.47
21,C2U A6C,0.429
22,U21A C38G,0.378
23,U21G G39A,0.354
24,U28C G33A,1.16

row,Variant,self-cleavage
1,G10U G17A,0.957
2,U9G A37U,0.611
3,C11U U24A,1.2
4,A6U G35C,0.473
5,U19G U28C,0.352
6,A1U A41C,0.378
7,U12A G36A,0.571
8,U9C G36A,0.511
9,A26G A40G,0.328
10,A23G G31A,0.403
11,A26U G45U,0.476
12,A26U G45C,0.362
13,C3U G33U,0.991
14,C15G G33A,0.9
15,C15A C20A,0.316
16,C15A C20U,0.438
17,G17U A26C,0.448
18,G17U A26U,0.527
19,G27A A42G,0.321
20,U12A U32C,1.14
21,U12G G25U,0.315
22,C11G G35U,0.957
23,A42C C43U,0.38
24,A6G G36A,0.624

row,Variant,self-cleavage
1,U12G G36U,0.471
2,A37C A42U,0.27
3,G10U G35C,0.685
4,G17C C30G,0.398
5,G18A A26C,0.366
6,U14C G45C,0.441
7,U14A U28G,0.555
8,C2A G33A,0.958
9,U7C A44U,0.582
10,G18A A44C,0.479
11,U32G C38A,0.674
12,C2A C43G,0.338
13,U9C U21G,0.72
14,C2A G31A,0.969
15,G4U C38G,0.323
16,A6C G8A,0.783
17,U9A U21A,0.528
18,G27U G39U,0.297
19,C15U A42U,0.329
20,A6G G35C,0.684
21,C2G U19G,0.275
22,A6C G45U,0.44
23,U13A C38U,1.5
24,A34G A41C,0.302

row,Variant,self-cleavage
1,C30A,0.919
2,G22A A37C,0.304
3,G4U U14A,0.469
4,A26C A34C,0.434
5,G17U G33A,0.862
6,G22C C43U,0.391
7,C29A A37G,0.692
8,C11A A41U,0.273
9,G4C G5U,0.418
10,A6C A41C,0.274
11,A34G C43U,0.393
12,G39A G45A,0.371
13,G35A,0.798
14,C3G G33U,0.591
15,U7C C11A,1.37
16,A1U G33A,0.651
17,A6G G31U,0.945
18,G18A C29G,0.537
19,G18C U32A,0.554
20,C16U C43A,0.352
21,C16U C43U,0.495
22,C3G C20G,0.317
23,G27C C29U,0.576
24,G27C A40C,0.411

row,Variant,self-cleavage
1,G33C G35U,0.795
2,C16G G22C,0.284
3,C2A U32A,0.784
4,U24G A37C,1.05
5,G5A C11U,0.804
6,G5U A42U,0.323
7,C3G C15A,0.298
8,C15U C29U,0.808
9,G27A A40G,0.341
10,A37U A44G,0.801
11,U28G A40G,0.261
12,G5C U12A,0.788
13,U13A G22C,0.312
14,G18U C30G,0.493
15,G17U G27U,0.513
16,C20U C30G,0.398
17,C3U G36U,0.491
18,G35A A42U,0.29
19,C11G U19C,0.532
20,G8U G35A,0.811
21,G4U C16U,1.05
22,U9A U28A,0.803
23,C30U C43G,0.343
